In this series the test system is variant Cas12i2 (RNP, exact variant not stated in Examples 1-5). Description: cell_activity. To be noted: HEK293T RNP 10 uM, 3 days.

For the sequence “AGAAAUCCGUCUUUCAUUGACGGAGGUCCACUGGAGGAGAAGU / AGGTCCACTGGAGGAGAAGT / ACTTCTCCTCCAGTGGACCT [E4T6 Cas12i2 crRNA ; TTR E4T6 target]”, under “PAM 5'-TTN (CTTC)”, the activity was more than 80 % indels.

With “AGAAAUCCGUCUUUCAUUGACGGGUAUAUCCCUUCUACAAAUU / GTATATCCCTTCTACAAATT / AATTTGTAGAAGGGATATAC [E3T3 Cas12i2 crRNA ; TTR E3T3 target]”, the activity (PAM 5'-TTN (CTTT)) is more than 80 % indels.

The sequence “AGAAAUCCGUCUUUCAUUGACGGUAGAUGCUGUCCGAGGCAGU / TAGATGCTGTCCGAGGCAGT / ACTGCCTCGGACAGCATCTA [E2T3 Cas12i2 crRNA ; TTR E2T3 target]” showed an activity (PAM 5'-TTN (GTTC)) of more than 80 % indels.

Values taken from patent US20220396782.
